Reference: the supplement of paper PMC6379048

Legend:
CELF1 = target: T1, CELF1 (UniProt Q92879); assay: Kd (EC50 corrected by depletion factor)
T1 sequence: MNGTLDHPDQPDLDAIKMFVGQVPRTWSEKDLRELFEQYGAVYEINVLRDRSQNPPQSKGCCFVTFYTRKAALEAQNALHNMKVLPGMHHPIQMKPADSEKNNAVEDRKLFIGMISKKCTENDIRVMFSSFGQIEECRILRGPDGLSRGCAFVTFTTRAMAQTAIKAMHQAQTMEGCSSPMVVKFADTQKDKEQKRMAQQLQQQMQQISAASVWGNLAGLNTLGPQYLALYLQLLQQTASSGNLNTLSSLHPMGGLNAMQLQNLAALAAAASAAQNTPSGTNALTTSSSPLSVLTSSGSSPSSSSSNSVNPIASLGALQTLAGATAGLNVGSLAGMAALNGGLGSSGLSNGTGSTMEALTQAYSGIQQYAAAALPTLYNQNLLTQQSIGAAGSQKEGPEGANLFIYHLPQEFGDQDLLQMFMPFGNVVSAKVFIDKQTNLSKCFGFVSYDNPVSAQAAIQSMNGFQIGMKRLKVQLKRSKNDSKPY
Summary of the method: (§1)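 To obtain EC50, data were fitted with a four-parameter log-logistic model; Kd was then EC50 multiplied by a protein-dependent depletion factor. Beforehand, free RNA oligos (0 nM to 30 μM) were pre-incubated with HEK293-FT lysate (2.5 mg protein/well) for 1 h at 4°C. The lysate then spent 30 min at 4°C with the same 5′-amino-C6 oligos coupled to NHS-Sepharose beads, and bound proteins were quantified by label-free LC-MS/MS, normalised to the control.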

LIN28B = target: T2, LIN28B (UniProt Q6ZN17); assay: Kd (EC50 corrected by depletion factor)
T2 sequence: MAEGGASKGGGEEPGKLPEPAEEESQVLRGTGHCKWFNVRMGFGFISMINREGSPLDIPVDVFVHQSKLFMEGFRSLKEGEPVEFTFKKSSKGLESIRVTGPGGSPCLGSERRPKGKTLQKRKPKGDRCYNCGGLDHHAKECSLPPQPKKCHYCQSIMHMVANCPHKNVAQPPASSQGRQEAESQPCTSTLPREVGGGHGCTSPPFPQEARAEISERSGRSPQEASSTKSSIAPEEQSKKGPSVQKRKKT
Summary of the method: as §1

RTCA = target: T3, RTCA (UniProt O00442); assay: Kd (EC50 corrected by depletion factor)
T3 sequence: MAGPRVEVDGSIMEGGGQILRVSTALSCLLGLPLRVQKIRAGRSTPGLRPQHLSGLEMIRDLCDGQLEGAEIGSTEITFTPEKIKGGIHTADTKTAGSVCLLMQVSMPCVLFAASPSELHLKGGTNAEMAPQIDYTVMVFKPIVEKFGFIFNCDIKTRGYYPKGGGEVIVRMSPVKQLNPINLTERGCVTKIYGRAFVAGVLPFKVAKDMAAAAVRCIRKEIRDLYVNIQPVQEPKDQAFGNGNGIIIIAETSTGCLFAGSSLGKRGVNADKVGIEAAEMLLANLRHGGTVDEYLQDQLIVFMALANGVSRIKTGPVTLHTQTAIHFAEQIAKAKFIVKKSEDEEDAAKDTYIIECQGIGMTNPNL
Summary of the method: as §1

ZC3HAV1 = ZC3HAV1 (UniProt Q7Z2W4); assay: Kd (EC50 corrected by depletion factor)
Chain of ZC3HAV1 (Q7Z2W4 whole entry): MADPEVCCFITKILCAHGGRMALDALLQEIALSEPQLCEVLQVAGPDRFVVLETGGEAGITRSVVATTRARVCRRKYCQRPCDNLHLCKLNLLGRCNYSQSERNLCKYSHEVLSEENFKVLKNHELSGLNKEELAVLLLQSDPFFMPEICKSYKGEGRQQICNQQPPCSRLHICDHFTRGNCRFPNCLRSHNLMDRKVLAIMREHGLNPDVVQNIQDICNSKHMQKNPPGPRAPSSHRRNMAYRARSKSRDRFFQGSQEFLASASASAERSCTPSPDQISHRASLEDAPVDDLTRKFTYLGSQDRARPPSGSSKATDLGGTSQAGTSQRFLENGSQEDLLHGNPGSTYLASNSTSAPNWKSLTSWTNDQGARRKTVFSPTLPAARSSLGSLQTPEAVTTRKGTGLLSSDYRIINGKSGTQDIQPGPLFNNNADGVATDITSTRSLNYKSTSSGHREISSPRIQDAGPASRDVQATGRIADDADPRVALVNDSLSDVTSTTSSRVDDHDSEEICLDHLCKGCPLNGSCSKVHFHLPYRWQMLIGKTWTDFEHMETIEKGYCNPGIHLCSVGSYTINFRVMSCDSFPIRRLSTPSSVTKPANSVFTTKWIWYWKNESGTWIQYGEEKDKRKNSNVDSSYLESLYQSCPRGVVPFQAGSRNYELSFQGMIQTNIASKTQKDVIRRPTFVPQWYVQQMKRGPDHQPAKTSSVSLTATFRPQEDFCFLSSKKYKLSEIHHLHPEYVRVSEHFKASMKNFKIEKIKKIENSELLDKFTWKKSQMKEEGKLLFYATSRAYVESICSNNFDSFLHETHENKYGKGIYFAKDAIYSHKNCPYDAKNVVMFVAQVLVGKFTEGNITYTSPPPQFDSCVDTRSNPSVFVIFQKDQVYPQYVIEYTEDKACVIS
Summary of the method: as §1

DHX9 = DHX9 (UniProt Q08211); assay: EC50 of free RNA motif oligo competing protein binding to immobilised probe
Chain of DHX9 (Q08211 whole entry): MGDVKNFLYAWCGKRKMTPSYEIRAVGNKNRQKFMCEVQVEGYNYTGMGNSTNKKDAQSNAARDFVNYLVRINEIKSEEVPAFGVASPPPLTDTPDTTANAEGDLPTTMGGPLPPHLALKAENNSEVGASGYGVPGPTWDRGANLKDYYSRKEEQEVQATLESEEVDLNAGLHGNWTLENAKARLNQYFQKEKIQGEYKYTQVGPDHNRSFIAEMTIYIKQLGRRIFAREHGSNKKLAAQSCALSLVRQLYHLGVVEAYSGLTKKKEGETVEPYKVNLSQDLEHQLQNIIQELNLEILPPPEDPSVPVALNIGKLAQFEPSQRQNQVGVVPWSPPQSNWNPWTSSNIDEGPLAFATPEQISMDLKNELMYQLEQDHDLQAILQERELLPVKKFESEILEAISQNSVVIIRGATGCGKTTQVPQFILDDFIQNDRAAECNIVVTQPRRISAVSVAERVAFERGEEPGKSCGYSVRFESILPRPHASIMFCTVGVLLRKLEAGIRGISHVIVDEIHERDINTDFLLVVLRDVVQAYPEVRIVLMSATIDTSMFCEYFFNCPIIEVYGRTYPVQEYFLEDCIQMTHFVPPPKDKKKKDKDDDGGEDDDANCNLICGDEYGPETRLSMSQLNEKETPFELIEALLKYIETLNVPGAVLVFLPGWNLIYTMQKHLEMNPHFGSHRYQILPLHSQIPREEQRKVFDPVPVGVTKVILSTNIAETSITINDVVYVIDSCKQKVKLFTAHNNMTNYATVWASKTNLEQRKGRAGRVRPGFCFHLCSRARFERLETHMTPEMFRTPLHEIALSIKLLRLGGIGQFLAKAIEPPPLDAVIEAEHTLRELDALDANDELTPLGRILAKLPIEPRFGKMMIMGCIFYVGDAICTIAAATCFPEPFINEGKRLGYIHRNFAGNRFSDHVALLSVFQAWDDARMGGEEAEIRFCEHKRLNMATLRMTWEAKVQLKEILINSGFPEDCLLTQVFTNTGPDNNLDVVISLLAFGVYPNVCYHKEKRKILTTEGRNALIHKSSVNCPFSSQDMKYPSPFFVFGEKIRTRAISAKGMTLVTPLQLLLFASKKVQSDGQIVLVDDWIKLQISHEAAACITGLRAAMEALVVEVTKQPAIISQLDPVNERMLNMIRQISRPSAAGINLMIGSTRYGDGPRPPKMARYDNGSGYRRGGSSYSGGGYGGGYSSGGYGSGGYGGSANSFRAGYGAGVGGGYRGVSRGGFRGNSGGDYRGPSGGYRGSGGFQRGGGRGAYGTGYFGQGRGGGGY
Procedure: (§2)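 Competition-binding assay: HEK293-FT cell lysate (2.5 mg protein) pre-incubated 1 h at 4°C with free motif-containing RNA oligos (0 to 30 µM, 12 doses), then pulled down with the same 5'-amino-C6 RNA oligos immobilised on NHS-Sepharose beads (30 min, 4°C). Bound proteins were quantified by label-free LC-MS/MS and normalised to the water control. EC50 came from a four-parameter log-logistic fit; Kd = EC50 x depletion factor. Random/reversed control probes are dropped.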

ZCCHC8 = target: T4, ZCCHC8 (UniProt Q6NZY4); assay: as above
T4 sequence: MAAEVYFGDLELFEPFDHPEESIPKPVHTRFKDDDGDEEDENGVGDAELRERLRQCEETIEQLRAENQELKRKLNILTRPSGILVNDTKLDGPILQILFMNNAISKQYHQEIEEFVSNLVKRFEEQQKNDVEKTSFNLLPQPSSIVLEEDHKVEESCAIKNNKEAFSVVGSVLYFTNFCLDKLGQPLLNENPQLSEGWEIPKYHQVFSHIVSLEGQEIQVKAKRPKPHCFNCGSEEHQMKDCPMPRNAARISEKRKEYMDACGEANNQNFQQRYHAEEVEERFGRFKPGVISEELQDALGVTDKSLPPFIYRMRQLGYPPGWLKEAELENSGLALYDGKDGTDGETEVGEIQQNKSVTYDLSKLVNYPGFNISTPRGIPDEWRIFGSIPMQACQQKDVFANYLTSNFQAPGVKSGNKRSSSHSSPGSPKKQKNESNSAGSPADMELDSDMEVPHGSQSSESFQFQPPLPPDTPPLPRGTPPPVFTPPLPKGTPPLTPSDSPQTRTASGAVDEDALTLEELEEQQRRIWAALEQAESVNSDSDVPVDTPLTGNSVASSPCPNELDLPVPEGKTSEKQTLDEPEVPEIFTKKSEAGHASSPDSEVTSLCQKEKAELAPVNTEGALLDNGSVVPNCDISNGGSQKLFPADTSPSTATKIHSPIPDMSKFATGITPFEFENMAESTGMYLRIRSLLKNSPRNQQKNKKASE
Procedure: as §2

AAUAAA
Kd (CELF1): 0.162 µM
Kd (LIN28B): 0.61 µM
Kd (RTCA): 0.0811 µM
Kd (ZC3HAV1): 0.776 µM
EC50 (DHX9): 4.05 µM
EC50 (ZCCHC8): 2.46 µM

CUGUCCU
Kd (CELF1): 3.66 µM
Kd (LIN28B): 1.22 µM
Kd (RTCA): 0.99 µM
Kd (ZC3HAV1): 0.867 µM
EC50 (DHX9): 0.546 µM
EC50 (ZCCHC8): 3.11 µM

UAUUUAU
Kd (CELF1): 0.35 µM
Kd (LIN28B): 1.1 µM
Kd (RTCA): 0.273 µM
Kd (ZC3HAV1): 4.31 µM
EC50 (DHX9): 1.87 µM
EC50 (ZCCHC8): 0.615 µM
